US10781452B2, “FLT3 receptor antagonists for the treatment or the prevention of pain disorders” (INSTITUT NATIONAL DE LA SANTE ET DE LA RECHERCHE MEDICALE …, priority 2010, dated 2020)

Legend:
Fc fragment alone = assay: ELISA binding to Fc fragment alone; settings: antibody at 10 μg/mL
Experimental: (§1) The A3 antibody directed against FLT3 was produced by a phage display strategy and the antibody selection was performed by using ECD of human or mouse recombinant FLT3 produced in NSO cell line. To identify antibodies cross-reacting with both human and mouse FLT3, phages were selected by three rounds of panning, according to methods well known in the art (Philibert, P. et al. A focused antibody library for selecting scFvs expressed at high levels in the cytoplasm. BMC Biotechnol. 7, 81; 2007), first against the ECD of human FLT3, then against the ECD of mouse FLT3 and then against the ECD of human FLT3. A batch of one selected antibody named A3 was tested for its ability to bind to the ECD of human or mouse recombinant FLT3 using an ELISA technique.

[1] = target: T1, ECD of mouse recombinant FLT3 (Fc-ECDmFLT3) (Mus musculus, UniProt Q00342); assay: ELISA binding to ECD of mouse recombinant FLT3; settings: antibody at 10 μg/mL
T1 construct: ECD of human or mouse recombinant FLT3 produced in NSO cell line; host or cells: NSO cell line
T1 sequence (Q00342 28-544 limits assumed): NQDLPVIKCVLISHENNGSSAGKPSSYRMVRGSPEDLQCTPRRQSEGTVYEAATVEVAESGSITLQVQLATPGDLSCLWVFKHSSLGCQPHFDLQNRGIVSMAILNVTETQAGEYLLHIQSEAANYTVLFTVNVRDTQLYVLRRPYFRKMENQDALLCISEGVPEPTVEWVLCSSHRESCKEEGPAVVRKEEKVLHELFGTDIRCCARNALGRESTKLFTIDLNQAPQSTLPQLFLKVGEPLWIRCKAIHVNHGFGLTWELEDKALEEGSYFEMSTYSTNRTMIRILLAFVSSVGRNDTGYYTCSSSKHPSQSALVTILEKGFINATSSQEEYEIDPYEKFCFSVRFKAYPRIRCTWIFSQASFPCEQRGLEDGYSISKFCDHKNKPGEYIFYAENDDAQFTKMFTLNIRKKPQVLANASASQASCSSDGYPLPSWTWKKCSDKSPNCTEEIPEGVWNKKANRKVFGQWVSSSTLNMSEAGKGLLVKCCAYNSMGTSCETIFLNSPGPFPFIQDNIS
Experimental: as §1

FLT3 = target: T2, FLT3 (Homo sapiens, UniProt P36888); assay: FL-induced FLT3 auto-phosphorylation assay in RS4-11 cells; assay type: cell-based; settings: antibody at 10 and 100 μg/ml
T2 construct: expressed in transfected cells; host or cells: RS4-11
T2 sequence (P36888 27-993): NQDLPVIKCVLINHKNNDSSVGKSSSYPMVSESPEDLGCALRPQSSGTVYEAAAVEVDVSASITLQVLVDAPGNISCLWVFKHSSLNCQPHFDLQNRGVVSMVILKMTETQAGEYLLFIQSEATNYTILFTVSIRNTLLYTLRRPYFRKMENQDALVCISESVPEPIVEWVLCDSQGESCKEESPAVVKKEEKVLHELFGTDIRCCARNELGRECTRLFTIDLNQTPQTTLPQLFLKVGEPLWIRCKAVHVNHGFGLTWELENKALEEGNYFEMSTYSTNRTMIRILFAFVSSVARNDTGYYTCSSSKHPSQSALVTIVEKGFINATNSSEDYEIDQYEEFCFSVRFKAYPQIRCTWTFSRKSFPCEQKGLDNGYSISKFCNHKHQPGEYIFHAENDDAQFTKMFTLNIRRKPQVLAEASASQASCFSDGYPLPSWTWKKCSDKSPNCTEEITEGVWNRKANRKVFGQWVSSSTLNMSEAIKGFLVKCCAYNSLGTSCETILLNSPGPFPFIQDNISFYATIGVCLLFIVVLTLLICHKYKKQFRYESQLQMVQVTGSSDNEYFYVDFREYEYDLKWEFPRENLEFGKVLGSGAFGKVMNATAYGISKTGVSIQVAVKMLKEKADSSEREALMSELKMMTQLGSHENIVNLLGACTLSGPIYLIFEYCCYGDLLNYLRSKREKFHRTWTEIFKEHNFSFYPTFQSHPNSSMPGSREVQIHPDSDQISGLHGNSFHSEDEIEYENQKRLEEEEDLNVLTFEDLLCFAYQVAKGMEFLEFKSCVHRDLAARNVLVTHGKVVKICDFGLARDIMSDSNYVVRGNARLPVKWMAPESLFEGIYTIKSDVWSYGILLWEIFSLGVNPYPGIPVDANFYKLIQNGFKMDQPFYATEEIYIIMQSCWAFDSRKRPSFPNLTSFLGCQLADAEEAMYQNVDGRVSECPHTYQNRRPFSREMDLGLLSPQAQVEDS
Experimental: Cell. RS4-11 cells, used for auto-phosphorylation assays, were maintained in RPMI-1640 (Invitrogen) and 10% Fetal Calf Serum. They were transfected as in the case of HEK cells (see above)
Auto-Phosphorylation assays. A density of 50,000 cells per well was used to carry out this assay in suspension in 384-well small volume plates to determine the degree of phosphorylation of FLT3. In the aim to discover antagonist compounds and to develop this assay, we were determined the efficiency of FL on RS4-11 cells.
Cells were incubated with 1 nM of rh-FL in the presence of increasing concentrations of the antibody. In the plates containing RS4-11 cells (5 μL/well), 5 μL of compounds to be tested were added and incubated for 1 h at room temperature prior to the addition of 2 μof rh-FL at 0.1 μM. After incubation of 3 min at room temperature of rh-FL, 4 μl of lysis buffer were added and incubated for 2 h at room temperature. A mix of anti-FLT3 and an anti-TYR-969 FLT3 antibodies labeled with Lumi4-Tb and d2 respectively (4 μL) diluted in Tag-lites) labelling medium, were added on cell lysate. Plates were then incubated at room temperature for 2 h or overnight before signal detection (as above).

B1: A3 antibody: human monoclonal antibody against FLT3; VH SEQ ID NO:1, VL SEQ ID NO:2 (antibody, V domains shown)
VH: EVQLVESGGSLVKPGGSLRLSCAASGFTFSNSYMNWVRQAPGKGLEWISDISGSSRDIDYADFVKGRFTISRDNATNSLYLQMNSLRAEDTAVYYCVRSGNSGMDVWGRGTLVTVSS
VL: QSVLTQPASVSGSPGQSITISCAGTSSDVGGGYYVSWYQQHPGKAPKLMIYYDSYRPSGVSNRFSGSKSGNTASLTISGLQAEDEADYYCSSYTNNSTRVFGGGTKLEIK
modifications: Synthetic VH domain of A3; Synthetic VL region of A3
**Q.** Which “ELISA immunoreactivity against Fc fragment alone” value (Fc fragment alone) does the source give for B1 here?
**A.** The value was “not against the Fc fragment alone”.

**Q.** What about the “ELISA immunoreactivity against Fc-ECDmFLT3” value [1] of the same molecule?
**A.** Its value is “generates immunoreactivity”.

**Q.** What about the “FL-induced FLT3 autophosphorylation” value (FLT3) of the same molecule?
**A.** The value was “inhibits FL-induced FLT3 autophosphorylation”.
